Data taken from PMC10987633, “Structural basis for RAD18 regulation by MAGEA4 and its implications for RING ubiquitin ligase binding by MAGE family proteins” (The EMBO Journal, 2024).
Where a chain is given by its changes, count along the chain named.

T1: full-length MAGEA4 M161D (human, UniProt P43358 1-317, M161D)
T1 construct: MAGEA4, human, Uniprot P43358, full length, with M161D; source: E. coli BL21star, purified (TALON, SEC)
T1 sequence (looked up): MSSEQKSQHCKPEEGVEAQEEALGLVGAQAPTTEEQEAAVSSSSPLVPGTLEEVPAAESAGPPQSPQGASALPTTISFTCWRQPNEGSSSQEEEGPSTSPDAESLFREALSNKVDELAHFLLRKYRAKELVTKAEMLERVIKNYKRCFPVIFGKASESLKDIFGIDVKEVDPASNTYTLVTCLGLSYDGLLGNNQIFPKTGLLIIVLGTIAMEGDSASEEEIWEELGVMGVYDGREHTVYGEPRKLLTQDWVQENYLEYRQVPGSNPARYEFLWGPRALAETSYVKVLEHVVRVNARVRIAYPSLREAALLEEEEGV

B1: full-length MAGEA4 wild type (purified) (natural protein, human, UniProt P43358 1-317, looked up)
chain: T1 sequence (looked up) with D161M
notes: MAGEA4, human, Uniprot P43358, full length; Cloned into PET15C; No removal of the His tag is described; the diGly search database lists 'His-tagged MAGEA4'; also called MAGEA4 WT; FL MAGEA4; source: E. coli BL21star, purified (TALON, SEC)
B2: RAD18 R6BD peptide (residues 340-366) (peptide, UniProt Q9NS91 340-366, looked up)
peptide: SKYRKKHKSEFQLLVDQARKGYKKIAG
notes: also called 27 amino acid peptide corresponding to the RAD18 R6BD; source: synthetic peptide, bought: GenScript

Key:
Settings in all cases: both partners purified
[1] = molecular target: T2, His-tagged full-length RAD18 wild type (human, UniProt Q9NS91 1-495); assay: cross-linking; XL-MS of RAD18/RAD6 incubated with 5x molar excess of full-length MAGEA4 for 1 h at 4 °C before BS3; trypsin, LC-MS/MS
T2 construct: RAD18, RING E3 ubiquitin ligase, human, Uniprot Q9NS91, residues 1-495, full length; Cloned into PET15C; Dimer in the RAD18/RAD6 complex by AUC and mass photometry; also called RAD18 WT; FL RAD18; source: E. coli BL21star; co-expressed with untagged MAGEA4, in cleared lysate (His pull-down); co-expressed with RAD6 and purified as RAD18/RAD6 (TALON, SEC); not shown: His tag, N-terminal, kept

[2] = molecular target: RAD18/RAD6 complex (purified) (human, UniProt Q9NS91 1-495; P63146 1-152, 2:1 RAD18:RAD6 asymmetric dimer as stated; Zn2+ bound (RING, zinc finger); RAD6 paralogue not given, UBE2B inferred from 2YBF); assay: mass photometry; OneMP mass photometer, SEC buffer; RAD18/RAD6, and RAD18/RAD6/MAGEA4 first cross-linked with BS3 (30 min on ice) and separated on an S200 3.2/300 column, peak fraction measured
[3] = molecular target: RAD6 wild type (purified alone) (human, UniProt P63146 1-152, paralogue not given; UBE2B chosen because the paper's RAD6/R6BD reference structure 2YBF is UBE2B); assay: ITC; RAD18 R6BD peptide at 200 µM titrated into protein at 20 µM; MicroCal ITC200, 25 °C; SEC buffer (100 mM NaCl, 20 mM HEPES pH 7.5, 1 mM TCEP)
[4] = molecular target: B1; assay: as above
full-length MAGEA4 M161D = molecular target: T1, full-length MAGEA4 M161D; assay: as above

Chain of RAD18/RAD6 complex (purified) (Q9NS91 whole entry, chain 1 of 2): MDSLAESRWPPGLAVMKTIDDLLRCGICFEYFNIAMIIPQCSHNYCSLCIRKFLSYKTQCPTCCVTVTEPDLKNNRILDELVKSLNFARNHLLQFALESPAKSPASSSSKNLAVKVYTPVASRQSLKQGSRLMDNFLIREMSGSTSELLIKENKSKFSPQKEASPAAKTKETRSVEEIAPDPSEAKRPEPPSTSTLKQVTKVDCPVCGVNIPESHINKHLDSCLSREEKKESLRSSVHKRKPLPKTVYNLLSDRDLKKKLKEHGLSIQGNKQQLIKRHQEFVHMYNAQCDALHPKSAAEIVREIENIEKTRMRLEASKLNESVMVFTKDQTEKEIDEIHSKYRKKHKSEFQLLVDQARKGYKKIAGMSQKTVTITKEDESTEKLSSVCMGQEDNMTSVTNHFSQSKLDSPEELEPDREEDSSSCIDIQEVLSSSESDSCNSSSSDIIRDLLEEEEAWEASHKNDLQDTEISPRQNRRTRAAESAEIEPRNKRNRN
Chain of RAD18/RAD6 complex (purified) (B2R503 whole entry, chain 2 of 2, further chain): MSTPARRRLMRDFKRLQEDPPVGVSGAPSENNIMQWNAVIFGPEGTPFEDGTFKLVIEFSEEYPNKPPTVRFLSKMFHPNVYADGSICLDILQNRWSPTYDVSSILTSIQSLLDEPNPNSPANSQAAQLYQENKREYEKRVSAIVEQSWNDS
T2 sequence (Q9NS91 whole entry, the tested form may be a part): as the sequence (Q9NS91 whole entry, chain 1 of 2) above

| binding result [1] | stoichiometry N [2] | Kd [3] | Kd [4] | Kd (full-length MAGEA4 M161D) | Binder |
| --- | --- | --- | --- | --- | --- |
| binds | 1 MAGEA4 per RAD18/RAD6 complex |  |  |  | B1 |
|  |  | 25.3 µM | 0.405 µM | 1.66 µM | B2 |
